In paper PMC11580435:

Key:
[1] = test system: 6xHis-BirA (Escherichia coli K-12); test: EMSA; details: 50 mM Tris-HCl pH 8.0, 1 mM EDTA, 50 mM NaCl, 1 mM ATP, 1 mM MgCl2, 1 uM biotin, 10% glycerol; 30 min room temperature; 5% PAGE in 0.5x TAE at 4 C
[2] = test system: 6xHis-TurboID (Escherichia coli K-12); test: EMSA; details: 50 mM Tris-HCl pH 8.0, 1 mM EDTA, 50 mM NaCl, 1 mM ATP, 1 mM MgCl2, 1 uM biotin, 10% glycerol; 30 min room temperature; 5% PAGE in 0.5x TAE at 4 C
[3] = test system: 6xHis-BioID (Escherichia coli K-12); test: EMSA; details: 50 mM Tris-HCl pH 8.0, 1 mM EDTA, 50 mM NaCl, 1 mM ATP, 1 mM MgCl2, 1 uM biotin, 10% glycerol; 30 min room temperature; 5% PAGE in 0.5x TAE at 4 C
MBP-BccP (S. flexneri) = MBP-BccP (S. flexneri) (UniProt P0ABE1)
[4] = target: 6xHis-BioID R118G (Escherichia coli K-12) (UniProt P06709); test: EMSA; details: 50 mM Tris-HCl pH 8.0, 1 mM EDTA, 50 mM NaCl, 1 mM ATP, 1 mM MgCl2, 1 uM biotin, 10% glycerol; 30 min room temperature; 5% PAGE in 0.5x TAE at 4 C
[5] = target: 6xHis-BirA (Escherichia coli K-12) (UniProt P06709); test: EMSA; details: 50 mM Tris-HCl pH 8.0, 1 mM EDTA, 50 mM NaCl, 1 mM ATP, 1 mM MgCl2, 1 uM biotin, 10% glycerol; 30 min room temperature; 5% PAGE in 0.5x TAE at 4 C

biotin operator probe (112 bp)
binding signal (% probe shifted at 50 nM protein) [1]: 93
binding signal (% probe shifted at 50 nM protein) [2]: 0.8
binding signal (% probe shifted at 50 nM protein) [3]: 41

6×His-TurboID (from UniProt P06709 1-321) (enzyme)
midpoint (t^50) of the in vitro biotinylation of MBP-BccP; 20 nM biotin ligase, 2 µM BccP, 37°C, streptavidin-HRP blot (MBP-BccP (S. flexneri)): 14.6 min

GCCATGGGGCTTCTCCAAAACGTGTTTTTTGTTGTTAATTCGGTGTAGGCTTGTAAACCTAAATCTTTTCAATTTGGTTTACAAGTCGATTATGACAACGGACGATCTTGCC (double strand) [biotin operator probe (112 bp)]
binding signal (% probe shifted at 50 nM protein) [4]: 41
binding signal (% probe shifted at 50 nM protein) [5]: 93

6×His-BioID (from UniProt P06709 1-321) (enzyme)
midpoint (t^50) of the in vitro biotinylation of MBP-BccP; 20 nM biotin ligase, 2 µM BccP, 37°C, streptavidin-HRP blot (MBP-BccP (S. flexneri)): 3.4 min
